Laboratory results: patent US20040110161

Assays:
[1] = target: T1, MBP-MutS fusion (Cy5-labeled) (Escherichia coli) (UniProt P23909); settings: with nuclease and SSB
T1 sequence: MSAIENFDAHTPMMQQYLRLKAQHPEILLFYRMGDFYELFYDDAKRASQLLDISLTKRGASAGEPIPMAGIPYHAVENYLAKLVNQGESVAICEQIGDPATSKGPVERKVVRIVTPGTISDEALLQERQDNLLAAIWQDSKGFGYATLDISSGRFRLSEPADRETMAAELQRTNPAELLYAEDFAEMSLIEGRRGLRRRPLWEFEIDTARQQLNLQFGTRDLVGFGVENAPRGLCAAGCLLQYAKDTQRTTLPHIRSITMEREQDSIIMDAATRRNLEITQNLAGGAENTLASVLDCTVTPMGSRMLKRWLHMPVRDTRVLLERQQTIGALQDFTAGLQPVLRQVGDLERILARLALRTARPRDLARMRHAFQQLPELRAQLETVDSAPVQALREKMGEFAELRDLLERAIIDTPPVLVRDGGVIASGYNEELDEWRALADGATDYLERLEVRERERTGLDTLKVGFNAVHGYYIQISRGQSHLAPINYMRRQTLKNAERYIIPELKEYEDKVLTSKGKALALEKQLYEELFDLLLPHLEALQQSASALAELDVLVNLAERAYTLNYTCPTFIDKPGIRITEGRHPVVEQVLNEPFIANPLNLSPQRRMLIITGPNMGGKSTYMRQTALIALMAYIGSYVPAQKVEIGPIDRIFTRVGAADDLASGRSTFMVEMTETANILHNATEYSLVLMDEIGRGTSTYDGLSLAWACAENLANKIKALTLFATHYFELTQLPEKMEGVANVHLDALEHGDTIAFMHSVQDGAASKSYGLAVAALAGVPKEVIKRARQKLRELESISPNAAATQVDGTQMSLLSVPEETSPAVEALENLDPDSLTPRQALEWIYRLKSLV

[2] = target: T2, MutS (Cy5-labeled) (Escherichia coli) (UniProt P23909); settings: mung bean nuclease and SSB treated hydrogel chip
T2 sequence: T1 sequence

“AGTGGTAATCTACTGGGACGGAACAGCTTTGAGGTGCGTGTTTGTGCCTGTCCTGGGAGAGACCGGCGCACAG (double strand) [cExon8/SW-480 PCR product]” gave a binding signal (fluorescence units) [1] of 168 and a binding signal (fluorescence units) [2] of 461.
